According to the supplement of paper PMC10567573:

B1: ZBED1 (parent)
chain: EQVFSLGDGVSGGFFGIRDSSFL

Variants of: B1
Assay: protein stability index of a GFP-peptide fusion (GPS, HEK-293T) (PSI 1-6); higher = more stable
Settings: c terminus: native
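Also: lentivirally expressed fusions sorted by FACS into six bins by GFP to DsRed ratio, PSI derived from sequencing read proportions per bin multiplied by bin number.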

Variant	protein stability index
EQVFSLGDGVSGDFFGIRDSSFL [G13D]	3.73
EQVFSLGDGVSGFFFGIRDSSFL [G13F]	1.98
EQVFSLGDGVSGTFFGIRDSSFL [G13T]	3.17
EQVFSLGDGVSGCFFGIRDSSFL [G13C]	3.08
EQVFSLGDGVSGAFFGIRDSSFL [G13A]	3.28
EQVFSLGDGVSGVFFGIRDSSFL [G13V]	2.22
EQVFSLGDGVSGSFFGIRDSSFL [G13S]	3.49
EQVFSLGDGVSGPFFGIRDSSFL [G13P]	3.49
EQVFSLGDGVSGWFFGIRDSSFL [G13W]	1.82
EQVFSLGDGVSGNFFGIRDSSFL [G13N]	3.58
EQVFSLGDGVSGHFFGIRDSSFL [G13H]	3.41
EQVFSLGDGVSGLFFGIRDSSFL [G13L]	2.23
EQVFSLGDGVSGYFFGIRDSSFL [G13Y]	2.04
EQVFSLGDGVSGQFFGIRDSSFL [G13Q]	3.48
EQVFSLGAGVSGGFFGIRDSSFL [D8A]	2.7
EQVFSLGTGVSGGFFGIRDSSFL [D8T]	2.91
EQVFSLGCGVSGGFFGIRDSSFL [D8C]	2.07
EQVFSLGVGVSGGFFGIRDSSFL [D8V]	1.57
EQVFSLGEGVSGGFFGIRDSSFL [D8E]	3.04
EQVFSLGNGVSGGFFGIRDSSFL [D8N]	2.88
EQVFSLGQGVSGGFFGIRDSSFL [D8Q]	2.73
EQVFSLGWGVSGGFFGIRDSSFL [D8W]	1.91
EQVFSLGFGVSGGFFGIRDSSFL [D8F]	1.61
EQVFSLGKGVSGGFFGIRDSSFL [D8K]	2.69
EQVFSLGSGVSGGFFGIRDSSFL [D8S]	3.22

Variant	protein stability index
EQVFSLGIGVSGGFFGIRDSSFL [D8I]	1.41
EQVFSLGMGVSGGFFGIRDSSFL [D8M]	1.47
EQVFSLGLGVSGGFFGIRDSSFL [D8L]	1.99
EQVFSLGHGVSGGFFGIRDSSFL [D8H]	2.73
EQVFSLGPGVSGGFFGIRDSSFL [D8P]	2.73
EQVFSLGRGVSGGFFGIRDSSFL [D8R]	2.61
EQVFSLGGGVSGGFFGIRDSSFL [D8G]	3.24
EQVFSLGYGVSGGFFGIRDSSFL [D8Y]	2.01
EQVRSLGDGVSGGFFGIRDSSFL [F4R]	4.16
EQVQSLGDGVSGGFFGIRDSSFL [F4Q]	4.12
EQVSSLGDGVSGGFFGIRDSSFL [F4S]	4.29
EQVTSLGDGVSGGFFGIRDSSFL [F4T]	3.75
EQVVSLGDGVSGGFFGIRDSSFL [F4V]	3.85
EQVWSLGDGVSGGFFGIRDSSFL [F4W]	3.08
EQVYSLGDGVSGGFFGIRDSSFL [F4Y]	3.47
EQVFSLEDGVSGGFFGIRDSSFL [G7E]	3.84
EQVFSLKDGVSGGFFGIRDSSFL [G7K]	3.16
EQVFSLRDGVSGGFFGIRDSSFL [G7R]	2.94
EQVFSLIDGVSGGFFGIRDSSFL [G7I]	1.9
EQVFSLCDGVSGGFFGIRDSSFL [G7C]	2.61
EQVFSLYDGVSGGFFGIRDSSFL [G7Y]	2.34
EQVFSLVDGVSGGFFGIRDSSFL [G7V]	2.19
EQVFSLPDGVSGGFFGIRDSSFL [G7P]	3.51
EQVFSLTDGVSGGFFGIRDSSFL [G7T]	3.23
EQVFSLLDGVSGGFFGIRDSSFL [G7L]	2.18

Variant	protein stability index
EQVFSLQDGVSGGFFGIRDSSFL [G7Q]	3.46
EQVFSLFDGVSGGFFGIRDSSFL [G7F]	1.99
EQVFSLDDGVSGGFFGIRDSSFL [G7D]	4.29
EQVFSLNDGVSGGFFGIRDSSFL [G7N]	3.28
EQVFSLWDGVSGGFFGIRDSSFL [G7W]	1.7
EQVFSLSDGVSGGFFGIRDSSFL [G7S]	2.94
EQVFSLMDGVSGGFFGIRDSSFL [G7M]	2.52
EQVFSLHDGVSGGFFGIRDSSFL [G7H]	3.34
EQVFSLADGVSGGFFGIRDSSFL [G7A]	2.98
EQVFSLGDGVGGGFFGIRDSSFL [S11G]	3.26
EQVFSLGDGVLGGFFGIRDSSFL [S11L]	3.09
EQVFSLGDGVWGGFFGIRDSSFL [S11W]	2.39
EQVFSLGDGVCGGFFGIRDSSFL [S11C]	2.48
EQVFSLGDGVNGGFFGIRDSSFL [S11N]	3.63
EQVFSLGDGVVGGFFGIRDSSFL [S11V]	2.9
EQVFSLGDGVPGGFFGIRDSSFL [S11P]	2.76
EQVFSLGDGVYGGFFGIRDSSFL [S11Y]	2.17
EQVFSLGDGVIGGFFGIRDSSFL [S11I]	2
EQVFSLGDGVDGGFFGIRDSSFL [S11D]	4.01
EQVFSLGDGVRGGFFGIRDSSFL [S11R]	2.89
EQVFSLGDGVHGGFFGIRDSSFL [S11H]	3.15
EQVFSLGDGVQGGFFGIRDSSFL [S11Q]	3.05
EQVFSLGDGVMGGFFGIRDSSFL [S11M]	2.81
EQVFSLGDGVTGGFFGIRDSSFL [S11T]	3.18
EQVFSLGDGVEGGFFGIRDSSFL [S11E]	4.02

Variant	protein stability index
EQVFSLGDGVFGGFFGIRDSSFL [S11F]	2.35
EQVFSLGDGVKGGFFGIRDSSFL [S11K]	3.11
EQVFSLGDGVAGGFFGIRDSSFL [S11A]	3.73
EQVFSLGDGQSGGFFGIRDSSFL [V10Q]	3.92
EQVFSLGDGGSGGFFGIRDSSFL [V10G]	3.89
EQVFSLGDGMSGGFFGIRDSSFL [V10M]	2.57
EQVFSLGDGRSGGFFGIRDSSFL [V10R]	4.32
EQVFSLGDGISGGFFGIRDSSFL [V10I]	2.92
EQVFSLGDGDSGGFFGIRDSSFL [V10D]	3.78
EQVFSLGDGSSGGFFGIRDSSFL [V10S]	4.03
EQVFSLGDGWSGGFFGIRDSSFL [V10W]	2.61
EQVFSLGDGHSGGFFGIRDSSFL [V10H]	3.55
EQVFSLGDGNSGGFFGIRDSSFL [V10N]	3.8
EQVFSLGDGPSGGFFGIRDSSFL [V10P]	3.86
EQVFSLGDGKSGGFFGIRDSSFL [V10K]	3.6
EQVFSLGDGYSGGFFGIRDSSFL [V10Y]	3.38
EQVFSLGDGLSGGFFGIRDSSFL [V10L]	3
EQVFSLGDGESGGFFGIRDSSFL [V10E]	3.62
EQVFSLGDGFSGGFFGIRDSSFL [V10F]	2.75
EQVFSLGDGTSGGFFGIRDSSFL [V10T]	3.78
EQVFSLGDGASGGFFGIRDSSFL [V10A]	3.87
EQVFSLGDGCSGGFFGIRDSSFL [V10C]	3.35
